Measurements published in patent publication US20120128635.

Tests used:
[1] = test system: ZFN SBS#9802 (N2 pair) (synthetic construct); assay: cell_activity; conditions: Cel-I assay in K562 day 3, as pair with SBS#11004; 34-47% in LP mouse liver in vivo (p174)
[2] = test system: ZFN SBS#11004 (N2 pair) (synthetic construct); assay: cell_activity; conditions: Cel-I assay in K562 day 3, as pair with SBS#9802; 34-47% in LP mouse liver in vivo (p174)

Sequence: TGACACAGTACCTGGCACCATAGTTGTA (double strand) [hF9 intron 1 target of SBS#9802]
- activity (% alleles cleaved) [1]: 30

Sequence: GTACTAGGGGTATGGGGATAAACCAGAC (double strand) [hF9 intron 1 target of SBS#11004]
- activity (% alleles cleaved) [2]: 30
